Experimental data from doi:10.1101/288472.

Biological target: uncleaved full-length membrane-anchored HIV-1_(JR-FL) Env(-) glycoprotein (HIV-1 (JR-FL))
Assay: cryo-EM structure

## uncleaved full-length membrane-anchored HIV-1_(JR-FL) Env(-) glycoprotein (natural protein)
  stoichiometry N: 3
